Results as given in patent publication US20200247894A1 (Regeneron, published 2020).
Values belong to the binder of their own block, whether it stands above or below them.

Tests used:
[1] = target: T1, human IL2Rγ (endogenously expressed on cells) (human, UniProt P31785 23-369); experiment: cell-based or functional assay
T1 sequence (looked up): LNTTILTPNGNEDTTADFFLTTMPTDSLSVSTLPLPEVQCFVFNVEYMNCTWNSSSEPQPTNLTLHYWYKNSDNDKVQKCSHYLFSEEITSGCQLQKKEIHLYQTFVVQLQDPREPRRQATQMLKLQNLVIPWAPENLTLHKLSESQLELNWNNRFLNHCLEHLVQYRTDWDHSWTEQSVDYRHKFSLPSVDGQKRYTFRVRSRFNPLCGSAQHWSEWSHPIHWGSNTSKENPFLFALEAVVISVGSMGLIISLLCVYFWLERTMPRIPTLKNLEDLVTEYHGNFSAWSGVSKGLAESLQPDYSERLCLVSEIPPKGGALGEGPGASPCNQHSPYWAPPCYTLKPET

[2] = target: T2, D1 domain of human IL-2Rγ extracellular domain expressed with a C-terminal myc-myc-hexahistidine tag (human); experiment: SPR, mAb captured on anti-hFc, 25 C
T2 construct: also called human IL2Rγ domain 1
T2 chain: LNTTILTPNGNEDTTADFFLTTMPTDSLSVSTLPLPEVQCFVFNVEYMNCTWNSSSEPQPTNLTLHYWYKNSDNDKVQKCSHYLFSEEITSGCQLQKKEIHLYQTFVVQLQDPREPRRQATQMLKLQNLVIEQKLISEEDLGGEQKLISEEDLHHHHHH
Procedure: (§1) Equilibrium dissociation constants (KD values) for IL-2Rγ binding to purified anti-IL2Rγ monoclonal antibodies were determined using a Biacore 4000 instrument equipped with a real-time surface plasmon resonance biosensor. All binding studies were performed in 10 mM HEPES, 150 mM NaCl, 3 mM EDTA, and 0.05% v/v Surfactant Tween-20, pH 7.4 (HBS-ET) running buffer at 25° C. and 37° C. The Biacore sensor surface was first derivatized by amine coupling with a monoclonal mouse anti-human Fc antibody (GE, # BR-1008-39) to capture anti-IL2Rγ monoclonal antibodies.
(§2) The dissociation of monoclonal antibody bound IL2Rγ reagents were monitored for 8-10 minutes in HBS-ET running buffer. Kinetic association (kₐ) and dissociation (kd) rate constants were determined by fitting the real-time sensorgrams to a 1:1 binding model using Scrubber 2.0c curve fitting software. Binding dissociation equilibrium constants (KD) and dissociative half-lives (t_{1/2}) were calculated from the kinetic rate constants as: […]

[3] = target: T2, D1 domain of human IL-2Rγ extracellular …; experiment: SPR, mAb captured on anti-hFc, 37 C
Procedure: as §1, §2

[4] = target: T3, mouse IL-2Rγ endogenously expressed on MC/9 cells (mouse, UniProt P34902 23-369); experiment: flow cytometry, 10 ug/ml antibody, MC/9 cells (endogenous mouse IL-2Rg)
T3 construct: whole, on cells
T3 sequence (looked up): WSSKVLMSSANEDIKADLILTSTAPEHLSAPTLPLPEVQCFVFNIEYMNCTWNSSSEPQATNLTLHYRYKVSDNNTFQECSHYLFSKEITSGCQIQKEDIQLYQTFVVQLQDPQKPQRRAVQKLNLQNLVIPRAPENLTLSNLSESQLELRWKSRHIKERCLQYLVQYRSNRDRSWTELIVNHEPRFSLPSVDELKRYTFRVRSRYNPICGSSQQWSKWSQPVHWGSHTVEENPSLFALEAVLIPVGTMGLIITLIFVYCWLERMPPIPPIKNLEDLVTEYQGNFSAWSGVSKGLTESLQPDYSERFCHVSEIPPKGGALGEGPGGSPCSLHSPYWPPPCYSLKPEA
Procedure: (§3) For flow cytometry analyses, the cells were pre-incubated with mouse IgG at 100 μg/ml for 15 minutes at room temperature (RT) to block the binding of the antibodies to Fc receptors. […] Cells were washed, fixed using BD CytoFix™ (BD biosciences, #554655) and analyzed on an IQue® (Intellicyt®) Flow Cytometer or Accuri Flow cytometer (BD). […] The results were analyzed using ForeCyt® (IntelliCyt®) software to determine the geometric means of fluorescence (MFI) for viable cells. Binding ratios were calculated by normalizing the MFI of the test sample by the MFI of the unstained sample.

[5] = target: T4, Mouse IL2Rγ extracellular domain expressed with a C-terminal myc-myc-hexahistidine tag (mouse); experiment: SPR Biacore 4000, anti-hFc-captured mAb, 25 C
T4 construct: whole entry is the tagged construct; also called mIL-2Rg-MMH
T4 chain: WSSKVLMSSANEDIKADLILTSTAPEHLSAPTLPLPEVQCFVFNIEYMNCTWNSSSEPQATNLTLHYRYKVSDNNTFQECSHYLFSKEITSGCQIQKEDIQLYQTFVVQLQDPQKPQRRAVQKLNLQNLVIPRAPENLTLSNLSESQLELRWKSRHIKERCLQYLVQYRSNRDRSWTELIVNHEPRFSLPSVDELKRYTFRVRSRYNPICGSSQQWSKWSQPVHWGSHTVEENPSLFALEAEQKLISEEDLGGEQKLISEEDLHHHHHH
Procedure: as §1, §2

[6] = target: T5, Rat IL2Rγ extracellular domain expressed with a C-terminal myc-myc-hexahistidine tag (rat); experiment: SPR Biacore 4000, anti-hFc-captured mAb, 25 C
T5 construct: whole entry is the tagged construct; also called rIL-2Rg-MMH; rat IL-2Rg-MMH
T5 chain: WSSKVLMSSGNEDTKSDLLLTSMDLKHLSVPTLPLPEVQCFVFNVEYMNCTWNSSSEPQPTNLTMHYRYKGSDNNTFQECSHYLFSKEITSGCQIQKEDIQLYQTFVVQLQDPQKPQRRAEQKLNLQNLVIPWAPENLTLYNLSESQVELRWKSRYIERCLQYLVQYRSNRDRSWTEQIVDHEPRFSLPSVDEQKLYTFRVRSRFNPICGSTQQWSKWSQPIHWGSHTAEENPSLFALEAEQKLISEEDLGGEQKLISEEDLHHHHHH
Procedure: as §1, §2

[7] = target: T4, Mouse IL2Rγ extracellular domain …; experiment: SPR Biacore 4000, anti-hFc-captured mAb, 37 C
Procedure: as §1, §2

[8] = target: T5, Rat IL2Rγ extracellular domain …; experiment: SPR Biacore 4000, anti-hFc-captured mAb, 37 C
Procedure: as §1, §2

[9] = target: T6, human IL-2Rγ endogenously expressed on NK-92 and Jurkat cells (human, UniProt P31785 23-369); experiment: flow cytometry, 10 ug/ml antibody, NK-92 cells (endogenous human IL-2Rg)
T6 construct: whole, on cells; on cells it stands with the other receptor subunits of the cell line; also called IL-2Rg; CD132
T6 sequence (looked up): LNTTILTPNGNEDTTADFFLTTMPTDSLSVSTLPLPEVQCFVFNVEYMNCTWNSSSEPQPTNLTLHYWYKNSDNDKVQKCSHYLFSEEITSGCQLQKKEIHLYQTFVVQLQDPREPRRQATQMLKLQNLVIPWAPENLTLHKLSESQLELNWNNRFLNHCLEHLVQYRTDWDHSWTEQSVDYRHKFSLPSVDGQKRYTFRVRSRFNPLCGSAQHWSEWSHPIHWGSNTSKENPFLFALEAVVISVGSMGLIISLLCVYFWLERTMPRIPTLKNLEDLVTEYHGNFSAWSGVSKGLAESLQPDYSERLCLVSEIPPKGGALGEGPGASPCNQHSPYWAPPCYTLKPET
Procedure: as §3

B1: H4H12857P (antibody, human IgG4 S228P, kappa, V domains shown)
VH: EVQLVESGGGVVRPGGSLRLSCAASGFTFDDFDMSWVRQGPGKGLEWVSGINWHGSSTGYADSVKGRFTISRDNAKNSLYLQMSSLRAEDTALYHCVRGGTIVGATTPLDYWGQGTLVTVSS
VL: DIQMTQSPSSLSASVGDRVTMTCRASRTISSYLSWYQQKSGKVPNLLIFGASSLQSGVPSRFSASGSGTDFTLIISSLQPEDFATYYCQQSYSSPLTFGGGTKVEIKR
notes: human IgG4; also called REGN9432
IC50; IL-2 30 pM; NK92/hIL7R/STAT3-luc [1]: > 1e-07 M
IC50; IL-4 250 pM; Ramos.2G6.4C10/STAT3-luc [1]: 3.8e-08 M
IC50; IL-7 50 pM; NK92/hIL7R/STAT3-luc [1]: 1.6e-08 M
IC50; IL-9 20 pM; NK92/hIL7R/STAT3-luc [1]: > 1e-07 M
IC50; IL-15 60 pM; NK92/hIL7R/STAT3-luc [1]: > 1e-07 M
Max Inhibition (%); IL-2 30 pM; NK92/hIL7R/STAT3-luc [1]: 44%
Max Inhibition (%); IL-4 250 pM; Ramos.2G6.4C10/STAT3-luc [1]: 96%
Max Inhibition (%); IL-7 50 pM; NK92/hIL7R/STAT3-luc [1]: 94%
Max Inhibition (%); IL-9 20 pM; NK92/hIL7R/STAT3-luc [1]: 83%
Max Inhibition (%); IL-15 60 pM; NK92/hIL7R/STAT3-luc [1]: 78%
100 nM Ag Bound [2]: 0 RU
100 nM Ag Bound [3]: 1 RU
binding result [3]: no binding (tested: 100 nM)

B2: H4H12857P (antibody, human IgG4 S228P, kappa, V domains shown)
VH: EVQLVESGGGVVRPGGSLRLSCAASGFTFDDFDMSWVRQGPGKGLEWVSGINWHGSSTGYADSVKGRFTISRDNAKNSLYLQMSSLRAEDTALYHCVRGGTIVGATTPLDYWGQGTLVTVSS
VL: DIQMTQSPSSLSASVGDRVTMTCRASRTISSYLSWYQQKSGKVPNLLIFGASSLQSGVPSRFSASGSGTDFTLIISSLQPEDFATYYCQQSYSSPLTFGGGTKVEIKR
notes: fully human anti-IL2Rg antibody, human IgG4; also called REGN9432
Binding Ratio (Sample over unstained MFIs) [4]: 1
Raw MFI [4]: 198 MFI

The remaining lines, values ahead:

100 nM Ag Bound [5]: 5 RU
binding result [5]: no binding (tested: 100 nM)
100 nM Ag Bound [6]: 1 RU
binding result [6]: no binding (tested: 100 nM)
100 nM Ag Bound [7]: 1 RU
100 nM Ag Bound [8]: 1 RU
B3: H4H12857P (antibody, human IgG4 S228P, kappa, V domains shown)
VH: EVQLVESGGGVVRPGGSLRLSCAASGFTFDDFDMSWVRQGPGKGLEWVSGINWHGSSTGYADSVKGRFTISRDNAKNSLYLQMSSLRAEDTALYHCVRGGTIVGATTPLDYWGQGTLVTVSS
VL: DIQMTQSPSSLSASVGDRVTMTCRASRTISSYLSWYQQKSGKVPNLLIFGASSLQSGVPSRFSASGSGTDFTLIISSLQPEDFATYYCQQSYSSPLTFGGGTKVEIKR
notes: fully human anti-IL2Rgamma mAb, human IgG4 Fc; also called REGN9432

Binding Ratio (Sample over unstained MFIs) [9]: 1
Raw MFI [9]: 235 MFI
B4: H4H13538P (antibody, human IgG4 S228P, kappa, V domains shown)
VH: EVQLVESGGGLVQPGGSLGLSCAASGFTFSNYAMSWVRQAPGKGLEWVSAVSGGGGGTYYADSVKGRFTISRDNSKNTVLLQMNSLRAEDTAVYYCARGRTGGLDYWGPGTLVTVSS
VL: DVVMTQSPLSLPVIFGQPASISCRSSQSLVDSDGNTYLNWLQQRPGQSPRRLIYEVSNRDSGVPDRFSGSGSGTDFTLTISRVEAEDVGIYYCMQGTRWPPTFGGGTKVEIKR
notes: fully human anti-IL2Rg antibody, human IgG4
